Measured values taken from US7090834B1, “Vascular endothelial cell growth factor variants and uses thereof” (Genentech, Inc., priority 1999, dated 2006).
Substitutions are numbered along the chain they refer to. Names and notes keep the numbering of the source.

Tests used:
corneal angiogenesis = assay: Corneal pocket angiogenesis assay; assay type: in vivo, Sprague-Dawley rats; settings: rat, pellet with 200 ng growth factor, day 6, FIGS. 15A and 15B
Procedure: Assays were performed as described by Polyerini et al., Methods Enzymol., 198:440–450 (1991) with the following modifications. Sprague-Dawley rats were anesthetized using a gas (isoflurane)/injectable ketamine (80 mg/kg)/xylazine (15 mg/kg) combination. The eyes were gently proptosed and secured in place using nontraumatic forceps. With a #15 blade, a 1.5 mm incision was made slightly below the center of the cornea. Using a micro spatula (ST80017, ASSI), the incision was carefully blunt-dissected through the stroma toward the outer canthus of the eye. […] After surgery, the eyes were coated with gentamicin ointment. At day 6, the animals were injected with high molecular weight FITC-dextran and euthanized to allow for visualization of the vasculature. Corneal whole mounts were made of the enucleated eyes and measurements of the neovascular area completed using computer-assisted image analysis (Image-Pro Plus).

[1] = molecular target: T1, KDR receptor (soluble radio-immuno receptor-binding assay) (UniProt P35968 20-764, limits assumed); assay: soluble radio-immuno receptor-binding assay (RIA)
T1 construct: the receptor construct is not described
T1 sequence (P35968 20-764 limits assumed): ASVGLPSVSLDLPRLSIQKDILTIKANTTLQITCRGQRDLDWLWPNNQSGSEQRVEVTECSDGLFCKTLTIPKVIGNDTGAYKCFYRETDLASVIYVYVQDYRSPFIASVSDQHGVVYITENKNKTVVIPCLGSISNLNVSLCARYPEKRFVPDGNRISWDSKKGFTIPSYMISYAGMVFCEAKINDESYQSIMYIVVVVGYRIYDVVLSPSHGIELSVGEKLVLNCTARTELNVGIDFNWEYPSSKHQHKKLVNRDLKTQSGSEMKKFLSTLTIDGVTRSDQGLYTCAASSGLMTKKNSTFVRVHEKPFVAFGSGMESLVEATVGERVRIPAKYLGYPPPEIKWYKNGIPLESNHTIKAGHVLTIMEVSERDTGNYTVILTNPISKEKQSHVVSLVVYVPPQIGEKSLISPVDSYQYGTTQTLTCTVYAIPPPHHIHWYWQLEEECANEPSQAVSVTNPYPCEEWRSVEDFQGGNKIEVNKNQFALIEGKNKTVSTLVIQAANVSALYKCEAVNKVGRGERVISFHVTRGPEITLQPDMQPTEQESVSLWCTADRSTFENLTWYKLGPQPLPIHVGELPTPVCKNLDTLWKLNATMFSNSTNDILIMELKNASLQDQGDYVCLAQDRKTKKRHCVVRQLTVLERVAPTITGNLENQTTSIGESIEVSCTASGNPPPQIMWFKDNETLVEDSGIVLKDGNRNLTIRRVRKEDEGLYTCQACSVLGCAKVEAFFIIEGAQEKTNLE
Procedure: For example, quantitative binding measurements were carried out using a soluble radio-immuno receptor-binding assay (RIA), as described in Example 6 above.

[2] = test system: ERK1 and ERK2 in HUVEC cells; assay: Activation of MAP kinases, ERK1/ERK2 phosphorylation Western blot; assay type: cell-based, human; settings: 50 ng/ml or 10 ng/ml, 5 minutes, FIG. 12A
Procedure: Passage 4–7 HUVEC cells (Cell Systems, Kirkland, Wash.) were grown in Cell System's complete medium (AZ0-500) with 10% fetal calf serum and growth factors on gelatin-coated dishes and made quiescent by 14 hour starvation in 0.2% serum. […] The HUVEC cells were then lysed in 0.5–1 ml RIPA buffer containing 0.1 mM sodium orthovanadate, 5 mM para-nitrophenylphosphate, 10 mM sodium fluoride, 0.5 micromolar okadaic acid and a protease inhibitor cocktail (Roche MB 1836145). Western blot analysis was then conducted, probing for phosphorylated ERK1 or ERK2 using anti-phospho ERK antiserum (Promega).

PLC-gamma in HUVEC cells = assay: PLC-gamma tyrosine phosphorylation after immunoprecipitation; assay type: cell-based, human; settings: 20 ng/ml, 5 minutes, FIG. 13A
Procedure: In order to determine which VEGF receptor(s) are involved in PLC-gamma activation in primary endothelial cells, HUVEC cells were treated with native VEGF or VEGF receptor-selective variants and PLC-gamma phosphorylation was assessed after immunoprecipitation.
Passage 4–7 HUVEC cells (Cell Systems, Kirkland, Wash.) were grown in Cell System's complete medium (AZ0-500) with 10% fetal calf serum and growth factors on gelatin-coated dishes and made quiescent by 14 hour starvation in 0.2% serum. […] The cells were then lysed in 0.5–1 ml RIPA buffer containing 0.1 mM sodium orthovanadate, 5 mM para-nitrophenylphosphate, 10 mM sodium fluoride, 0.5 micromolar okadaic acid and a protease inhibitor cocktail (Roche MB 1836145). PLC-gamma was then immunoprecipitated from whole cell lysates using monoclonal antibodies (Upstate Biotechnology) and analyzed for tyrosine phosphorylation (FIG. 13A) or lysates were immunoprecipitated with monoclonal antibodies against p85 PI 3′-kinase (purchased from Transduction Labs (P13020) and Neomarkers (MS424-P)) and tested for phosphotyrosine using phosphotyrosine antibodies PY20 or E120H (Transduction Labs) (FIG. 13B). Immunoprecipitation was conducted as follows. Protein A/G beads (Pierce) were blocked for nonspecific protein binding in 50 mM HEPES pH 7.2, 0.1% TX-100, 150 mM NaCl and 1 mg/ml ovalbumin for 30 minutes. Antibodies were precoupled in the same buffer for 1 hour at 4° C. with head over end rotation and beads were washed 3 times in lysis buffer. Beads were added to the lysates and rotated overnight. Beads were washed sequentially in 50 mM Tris pH 7.6, 150 mM NaCl, 1% TX-100, 1 mM CaCl2; 50 mM Tris pH 7.6, 500 mM NaCl, 0.1% TX-100, 1 mM CaCl2 and 50 mM Tris pH 7.6, 150 mM NaCl, 0.05% TX-100, 1 mM CaCl2. Beads were then resuspended in 2× sample buffer and boiled. Supernatants were applied directly to 4–12% Tris-Glycine gradient gels (Novex).

HUVEC cells = assay: HUVEC migration, modified Boyden chamber assay; assay type: cell-based, human; settings: 18 hour assay, FIG. 14A
Procedure: One of the central aspects of VEGF action on endothelial cells is its ability to act as a chemoattractant and stimulate the migration of endothelial cells. HUVEC cell migration was analyzed in a modified Boyden chamber assay as follows.
Falcon 8.0 micron filter inserts (Falcon 3097) were coated with type 1 collagen (VITROGEN, COHESION). HUVEC (obtained from Cell Systems, <passage 8) were grown in Cell Systems complete media (4ZO-500) with 10% FCS. Cells were trypsinized and transferred to EBM (Endothelial basal media, Clonetics) with 0.1% BSA for the assay. Cells were plated at 5×10^4 per upper chamber. […] The assay was routinely an 18 hour assay at 37° C. For the LY294002 inhibitor experiments, cells were allowed to adhere for 30 minutes prior to addition of the inhibitor. 20 minutes after inhibitor addition, VEGF was added to the bottom well and the assay was allowed to proceed for only 4 hours to avoid the occurrence of apoptosis associated with the treatment of these primary cells with LY294002 (purchased from Biomol).
Cells were removed from the upper side of the membrane by scraping with a polyurethane swab and then the remaining cells on the bottom side of the membrane were fixed with methanol. Cells were stained with Yo-Pro Iodide nuclear stain (Molecular Probes) and counted under low power fluorescence using an Image-Pro cell recognition program.

Flt-IgG = molecular target: T2, Flt-IgG (UniProt P17948 27-758, limits assumed); assay: competition ELISA vs biotinylated native VEGF for Flt-IgG
T2 construct: also called chimeric Flt-human Fc molecule; not shown: human IgG Fc
T2 sequence (P17948 27-758 limits assumed): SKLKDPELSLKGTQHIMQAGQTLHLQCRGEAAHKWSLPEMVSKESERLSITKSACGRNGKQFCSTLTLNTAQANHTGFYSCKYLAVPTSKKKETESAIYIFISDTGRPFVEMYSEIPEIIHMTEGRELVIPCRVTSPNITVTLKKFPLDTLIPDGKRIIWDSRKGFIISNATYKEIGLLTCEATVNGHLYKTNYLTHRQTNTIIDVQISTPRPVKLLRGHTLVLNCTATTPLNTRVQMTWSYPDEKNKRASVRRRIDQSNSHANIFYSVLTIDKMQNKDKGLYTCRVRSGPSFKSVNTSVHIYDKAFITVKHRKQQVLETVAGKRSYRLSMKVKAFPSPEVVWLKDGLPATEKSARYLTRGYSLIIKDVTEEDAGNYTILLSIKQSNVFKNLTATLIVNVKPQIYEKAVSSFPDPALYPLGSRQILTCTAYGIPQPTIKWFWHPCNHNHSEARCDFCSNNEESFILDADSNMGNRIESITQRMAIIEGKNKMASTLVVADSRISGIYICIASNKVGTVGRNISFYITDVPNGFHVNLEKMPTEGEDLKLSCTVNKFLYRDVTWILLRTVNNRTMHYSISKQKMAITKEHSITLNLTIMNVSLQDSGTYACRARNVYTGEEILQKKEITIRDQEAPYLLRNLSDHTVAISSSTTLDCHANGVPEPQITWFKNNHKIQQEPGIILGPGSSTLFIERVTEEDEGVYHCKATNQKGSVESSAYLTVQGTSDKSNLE
Procedure: (§1) Receptor binding assays were performed in 96-well immunoplates (Maxisorp, Nunc-Immunoplate, Nalge Nunc International, Rochester, N.Y.). Each well was coated with 100 μl of a solution containing 2 μg/ml of rabbit F(ab')2 to human IgG Fc (Jackson ImmunoResearch, West Grove, Pa.) in 50 mM carbonate buffer at pH 9.6 and incubated at 4° C. overnight. The supernatant was then discarded, the wells were washed three times in washing buffer (0.05% Tween 20 in PBS), and the plate was blocked (150 μl per well) with block buffer (0.5% BSA, 0.01% thimerosal in PBS) at room temperature for one hour. The supernatant was discarded, and the wells were washed.
The wells were filled with 100 μl of a solution containing Flt-IgG (a chimeric Flt-human Fc molecule) at 50 ng/ml in assay buffer (0.5% BSA, 0.05% Tween 20 in PBS). The wells were incubated at room temperature for 1 hour and then washed three times in wash buffer (0.05% Tween 20 in PBS).
Aliquots of the mixture (100 μl) were added to the precoated microtiter wells and the plate was incubated for 2 hours at room temperature. […] The wells were then incubated with 3, 3', 5,5'-tetramethyl benzidine (0.2 g/liter, Kirkegaard & Perry Laboratories, Gaithersburg, Md.) for about 10 minutes at room temperature. Absorbance was read at 450 nm on a Vmax plate reader (Molecular Devices, Menlo Park, Calif.).

[3] = molecular target: KDR receptor on HUVEC cells (human, UniProt P35968 20-1356); assay: cell-based or functional assay
Sequence of KDR receptor on HUVEC cells (P35968 20-1356): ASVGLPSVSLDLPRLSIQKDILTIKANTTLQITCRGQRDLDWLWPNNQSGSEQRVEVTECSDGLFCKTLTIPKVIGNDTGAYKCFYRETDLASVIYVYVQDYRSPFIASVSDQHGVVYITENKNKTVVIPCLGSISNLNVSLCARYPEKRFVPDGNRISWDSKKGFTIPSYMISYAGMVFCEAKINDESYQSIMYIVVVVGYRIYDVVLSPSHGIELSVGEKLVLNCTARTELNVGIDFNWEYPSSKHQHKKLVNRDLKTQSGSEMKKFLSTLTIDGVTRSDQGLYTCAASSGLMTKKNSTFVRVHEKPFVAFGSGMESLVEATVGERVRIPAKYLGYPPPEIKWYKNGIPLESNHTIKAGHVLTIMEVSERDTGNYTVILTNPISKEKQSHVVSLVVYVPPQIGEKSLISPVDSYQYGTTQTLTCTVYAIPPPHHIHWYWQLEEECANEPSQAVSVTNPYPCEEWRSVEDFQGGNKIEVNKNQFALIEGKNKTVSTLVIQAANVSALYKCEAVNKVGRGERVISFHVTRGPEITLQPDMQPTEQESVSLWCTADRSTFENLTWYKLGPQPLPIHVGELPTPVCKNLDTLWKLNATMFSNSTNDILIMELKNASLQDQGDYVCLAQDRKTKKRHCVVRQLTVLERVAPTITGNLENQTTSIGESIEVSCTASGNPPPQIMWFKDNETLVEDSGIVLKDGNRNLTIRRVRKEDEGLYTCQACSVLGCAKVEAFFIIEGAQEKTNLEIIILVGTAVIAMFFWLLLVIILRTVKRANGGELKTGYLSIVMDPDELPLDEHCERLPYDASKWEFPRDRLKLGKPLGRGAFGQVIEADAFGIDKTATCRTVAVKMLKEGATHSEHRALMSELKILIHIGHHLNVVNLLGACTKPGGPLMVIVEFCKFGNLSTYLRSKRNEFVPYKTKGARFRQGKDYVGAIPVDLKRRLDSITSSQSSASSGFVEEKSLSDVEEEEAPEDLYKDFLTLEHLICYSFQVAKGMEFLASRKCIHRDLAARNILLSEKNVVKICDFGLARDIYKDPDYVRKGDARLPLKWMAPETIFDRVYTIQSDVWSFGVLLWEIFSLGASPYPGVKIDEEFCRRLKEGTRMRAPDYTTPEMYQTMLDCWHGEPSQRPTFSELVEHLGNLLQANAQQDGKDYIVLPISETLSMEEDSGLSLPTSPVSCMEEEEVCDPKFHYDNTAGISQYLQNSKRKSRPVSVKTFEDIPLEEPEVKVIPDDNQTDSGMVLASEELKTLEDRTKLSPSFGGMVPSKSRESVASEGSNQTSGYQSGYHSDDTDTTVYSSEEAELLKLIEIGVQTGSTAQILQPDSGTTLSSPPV

[4] = molecular target: T3, FLT-1 receptor (soluble radio-immuno receptor-binding assay) (UniProt P17948 27-758, limits assumed); assay: RIA (essentially as Muller et al. 1997)
T3 construct: the receptor construct is not described
T3 sequence (P17948 27-758 limits assumed): as the sequence (P17948 27-758 limits assumed) above

[5] = molecular target: T1, KDR receptor (soluble radio-immuno …); assay: RIA (essentially as Muller et al. 1997)
KDR (1-3) = molecular target: T4, KDR (1-3) (UniProt P35968 20-327, limits assumed); assay: competition ELISA vs biotinylated native VEGF (8-109) for KDR (1-3)
T4 construct: domain: domains 1 to 3; Genentech reagent; also called KDR (1-3) monomer; domains 1 to 3 of KDR
T4 sequence (P35968 20-327 limits assumed): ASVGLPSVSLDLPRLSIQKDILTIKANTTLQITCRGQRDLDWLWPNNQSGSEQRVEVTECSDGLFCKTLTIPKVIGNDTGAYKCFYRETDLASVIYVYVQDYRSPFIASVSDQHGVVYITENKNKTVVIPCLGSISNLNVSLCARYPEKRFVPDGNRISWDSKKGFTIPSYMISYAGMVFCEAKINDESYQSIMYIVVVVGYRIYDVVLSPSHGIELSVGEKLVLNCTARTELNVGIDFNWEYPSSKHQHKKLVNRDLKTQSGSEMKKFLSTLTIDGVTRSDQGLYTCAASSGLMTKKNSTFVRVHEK
Procedure: as §1, with “containing 8” for “containing 2”, “of a monoclonal antibody” for “of rabbit F(ab')2”, “to KDR known as MAKD5 (Genentech, South San Francisco, Calif.)” for “to human IgG Fc (Jackson ImmunoResearch, West Grove, Pa.)”, “was” for “was then”
Aliquots of this mixture (100 μl) were added to the precoated microtiter wells and the plate was incubated for 1 hour at room temperature. […] The wells were then incubated with 3, 3', 5,5'-tetramethyl benzidine (0.2 gram/liter; Kirkegaard & Perry Laboratories, Gaithersburg, Md.) for about 10 minutes at room temperature. Absorbance was read at 450 nm on a Vmax plate reader (Molecular Devices, Menlo Park, Calif.).
(§2) Titration curves were fit with a four-parameter nonlinear regression curve-fitting program (KaleidaGraph, Synergy Software, Reading, Pa.).

KDR receptor = KDR receptor (Homo sapiens, UniProt P35968); assay: KDR receptor binding ELISA (inhibition of biotinylated native VEGF (8–109) binding); settings: second figure of the cell, variant midpoint concentration divided by that of native VEGF
Sequence of KDR receptor (P35968 20-327 limits assumed): as above
Procedure: as §1, with “containing 8” for “containing 2”, “of a monoclonal antibody” for “of rabbit F(ab')2”, “to KDR known as MAKD5 (Genentech, South San Francisco, Calif.)” for “to human IgG Fc (Jackson ImmunoResearch, West Grove, Pa.)”, “was” for “was then”
Aliquots of this mixture (100 μl) were added to the precoated microtiter wells and the plate was incubated for 1 hour at room temperature. […] The wells were then incubated with 3, 3′, 5,5′-tetramethyl benzidine (0.2 gram/liter; Kirkegaard & Perry Laboratories, Gaithersburg, Md.) for about 10 minutes at room temperature. Absorbance was read at 450 nm on a Vmax plate reader (Molecular Devices, Menlo Park, Calif.).
as §2

[6] = molecular target: gD-KDR receptor on CHO cells (UniProt P35968 20-1356); assay: cell-based or functional assay
Flt-1 receptor = assay: RIA assay, binding to FLT-1 receptor; settings: relative to native VEGF 165 = 1
Sequence of Flt-1 receptor (P17948 27-331 limits assumed): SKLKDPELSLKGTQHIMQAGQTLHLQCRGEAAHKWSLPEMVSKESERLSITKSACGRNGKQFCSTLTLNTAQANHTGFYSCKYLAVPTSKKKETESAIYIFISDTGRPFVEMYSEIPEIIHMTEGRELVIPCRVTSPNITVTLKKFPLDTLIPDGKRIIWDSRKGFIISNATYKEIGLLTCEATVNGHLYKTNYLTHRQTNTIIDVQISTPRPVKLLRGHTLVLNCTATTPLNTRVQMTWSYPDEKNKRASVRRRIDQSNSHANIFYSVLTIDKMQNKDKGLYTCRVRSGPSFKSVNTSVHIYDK
Procedure: Various assays were conducted to examine the properties and biological activities of the I43A/I46A/Q79A/I83A Flt-sel variant. For example, quantitative binding measurements were carried out using a soluble radio-immuno receptor-binding assay (RIA), as described in Example 6 above.

B1: PlGF: VEGF-related molecule that binds Flt-1 but not KDR (R & D Systems) (protein)
chain: AVPPQQWALSAGNGSSEVEVVPFQEVWGRSYCRALERLVDVVSEYPSEVEHMFSPSCVSLLRCTGCCGDENLHCVPVETANVTMQLLKIRSGDRPSYVELTFSQHVRCECRPLREKMKPERCGDAVPRR
induction of corneal angiogenesis (corneal angiogenesis): only a marginal response

B2: Flt-sel (I43A/I46A/Q79A/I83A, 1-109 short form) (ligand, human, UniProt P15692-4 27-135, looked up)
chain: APMAEGGGQNHHEVVKFMDVYQRSYCHPIETLVDIFQEYPDEAEYAFKPSCVPLMRCGGCCNDEGLECVPTEESNITMAIMRAKPHQGQHIGEMSFLQHNKCECRPKKD
notes: also called Flt-1-sel; Flt-1 selective variant
fold reduced KDR-binding affinity (against native VEGF (8-109)) [1]: ≥ 470 fold

B3: Flt-1 selective VEGF variant: Flt-1 selective variant comprising a full length 165 sequence with I43A/I46A/Q79A/I83A (protein)
chain: B2 chain
phosphorylation of ERK1 and ERK2 [2]: barely detectable phosphorylation of ERK2
PLC-gamma phosphorylation (PLC-gamma in HUVEC cells): did not increase PLC-gamma phosphorylation over background levels
promotion of HUVEC cell migration (HUVEC cells): unable to increase cell migration over background levels
induction of corneal angiogenesis (corneal angiogenesis): unable to stimulate angiogenesis over control levels

B4: LK-VRB-1s* (ligand, human, UniProt P15692-4 27-135, looked up)
chain: B2 chain with M18E, Y21L, Q22R, Y25S, A43I, A46I, A79Q, A83I
relative binding affinity (ratio to native VEGF (8-109)) (Flt-IgG): 6000 ratio
Endothelial Cell Proliferation Activity (HUVEC, 3H-thymidine) [3]: 0.2 ratio to native VEGF (8-109)
relative binding affinity (ratio to native VEGF 165) [4]: 14000 ratio
relative binding affinity (ratio to native VEGF 165) [5]: 20 ratio
relative binding affinity (ratio to native VEGF (8-109)) (KDR (1-3)): 1 ratio
Relative Binding Affinity, KDR Receptor: ratio to native VEGF (8–109) (KDR receptor): 1 nM/1
Phosphorylation-Inducing Activity (KIRA assay) [6]: 0.5 ratio to native VEGF (8-109)
Relative Binding Affinity, FLT-1 Receptor (RIA) (Flt-1 receptor): 14,000
